Tests used:
[1] = target: the molecule itself; assay: cross-linking; 1.5 µM protein in 50 mM sodium phosphate pH 7.4, 20% glycerol, 5 mM MgCl2, with 35 mM glutaraldehyde for 1 h at room temperature; SDS-PAGE and Western blot with the anti-DacA antibody
[2] = target: the molecule itself; assay: AUC; sedimentation velocity, 4°C, 10% glycerol in PBS; DacA and DacA_(1–287) at 40 000 rpm, DacA_(140–358) at 50 000 rpm; mass by the c(M) method in SEDFIT
SEC = target: the molecule itself; assay: SEC

B1: DacA_(140–358) (domain or fragment)
chain: VLTDSATILSRANQAIATLERYKTRLDEVSRQLSRAEIEDFVTLRDVMTVVQRLELVRRIGLVIDYDVVELGTDGRQLRLQLDELLGGNDTARELIVRDYHANPEPPSTGQINATLDELDALSDGDLLDFTALAKVFGYPTTTEAQDSTLSPRGYRAMAGIPRLQFAHADLLVRAFGTLQGLLAASAGDLQSVDGIGAMWARHVREGLSQLAESTISDQ
notes: also called last 219 aa of DacA; DacA lacking the N-terminal Dac domain
- stoichiometry N [1]: 2

B2: DacA_(1–287) (domain or fragment)
chain: MHAVTRPTLREAVARLAPGTGLRDGLERILRGRTGALIVLGHDENVEAICDGGFSLDVRYAATRLRELCKMDGAVVLSTDGSRIVRANVQLVPDPSIPTDESGTRHRSAERAAIQTGYPVISVSHSMNIVTVYVRGERHVLTDSATILSRANQAIATLERYKTRLDEVSRQLSRAEIEDFVTLRDVMTVVQRLELVRRIGLVIDYDVVELGTDGRQLRLQLDELLGGNDTARELIVRDYHANPEPPSTGQINATLDELDALSDGDLLDFTALAKVFGYPTTTEAQDS
notes: also called first 287 aa of DacA; DacA lacking the C-terminal HhH domain
- stoichiometry N [2]: 4

B3: Mycobacterium tuberculosis Rv3586 (DacA) (enzyme)
chain: MHAVTRPTLREAVARLAPGTGLRDGLERILRGRTGALIVLGHDENVEAICDGGFSLDVRYAATRLRELCKMDGAVVLSTDGSRIVRANVQLVPDPSIPTDESGTRHRSAERAAIQTGYPVISVSHSMNIVTVYVRGERHVLTDSATILSRANQAIATLERYKTRLDEVSRQLSRAEIEDFVTLRDVMTVVQRLELVRRIGLVIDYDVVELGTDGRQLRLQLDELLGGNDTARELIVRDYHANPEPPSTGQINATLDELDALSDGDLLDFTALAKVFGYPTTTEAQDSTLSPRGYRAMAGIPRLQFAHADLLVRAFGTLQGLLAASAGDLQSVDGIGAMWARHVREGLSQLAESTISDQ
notes: also called native DacA; not shown: His tag, C-terminal, kept
- stoichiometry N (SEC): 8
